The chains are these.
B1: 4R34, human IgG1 (antibody, V domains shown)
VH: EVQLLESGGGLVQPGGSLRLSCAASGFTFSNYAMSWVRQAPGKGLEWVSAISSGGGNIYYADSVKGRFTISRDNSKNTLYLQMNSLRAEDTAVYYCARVHRAFDYWGQGTLVTVSS
VL: QSVLTQPPSASGTPGQRVTISCSGSSSNIGSNTFNWYQQLPGTAPKLLIYADSHRPSGVPDRFSGSKSGTSASLAISGLRSEDEADYYCGTWDYSLSGYVLGGGTKLTVL
B2: 4R34.1.18, human IgG1 (antibody, V domains shown)
VH: B1 VH with S52T, G54S, G56R, N57S
VL: B1 VL with S26L, S27L, N28R, I29G, G30E, S31N, N32L, T33Q, S97R
B3: 4R34.19, human IgG1 (antibody, V domains shown)
VH: B1 VH with S52T, G54S
VL: B1 VL with T91Y
B4: 4R34.1.11, human IgG1 (antibody, V domains shown)
VH: B1 VH with S52T, G54S, G56R, N57S
VL: B1 VL with S27A, I29S, G30R, S31T, N32D, T33G, S97R
B5: 4R34.2, human IgG1 (antibody, V domains shown)
VH: B1 VH with S52T, G54S, G56A
VL: B1 VL with S97R
B6: 4R34.1.19, human IgG1 (antibody, V domains shown)
VH: B1 VH with N31R, Y32H, S35A, S52T, G54S, G56R, N57S
VL: B1 VL with S26P, S27L, N28F, I29P, G30D, N32G, T33S
B7: 4R34.1, human IgG1 (antibody, V domains shown)
VH: B1 VH with S52T, G54S, G56R, N57S
VL: B1 VL
B8: 4R34.29, human IgG1 (antibody, V domains shown)
VH: B1 VH with S52T, S53A, N57S
VL: B1 VL
B9: 4R34.1.13, human IgG1 (antibody, V domains shown)
VH: B1 VH with S52T, G54S, G56R, N57S
VL: B1 VL with S26A, S27Q, N28F, I29G, G30S, S31R, N32D, T33N, S97R
B10: 4R34.1.21, human IgG1 (antibody, V domains shown)
VH: B1 VH with S52T, G54S, G56R, N57S
VL: B1 VL with S26A, S27A, N28L, I29D, G30L, N32P, T33S
B11: 4R34.1.17, human IgG1 (antibody, V domains shown)
VH: B1 VH with S52T, G54S, G56R, N57S
VL: B1 VL with S26T, S27K, N28Q, I29M, G30H, S31N, N32Y, T33Q

Residue numbers refer to the chain shown, from its start.

T1 sequence (P24394 26-232): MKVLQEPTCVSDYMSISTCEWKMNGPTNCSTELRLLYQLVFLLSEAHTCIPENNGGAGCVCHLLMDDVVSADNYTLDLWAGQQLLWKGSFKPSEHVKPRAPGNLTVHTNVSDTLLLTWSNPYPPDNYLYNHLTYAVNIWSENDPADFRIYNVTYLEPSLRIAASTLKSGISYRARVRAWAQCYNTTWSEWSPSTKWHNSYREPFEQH

The first experiment concerns the target T1, extracellular domain of human IL-4Rα (residues 26–232), C-terminal 6× His (human, UniProt P24394).
T1 construct: human interleukin-4 receptor alpha subunit, extracellular domain, residues 26-232; Subcloned into the pSecTag2A vector; N-glycosylated (~45 kDa, ~26 kDa after PNGase F); also called wild-type IL-4Rα; soluble IL-4Rα; source: HEK293F, transiently transfected, purified (Ni-NTA); not shown: His6, C-terminal, kept
The experiment can be described thus: BLI; OctetRED96; Ab (1 μg/mL) captured on anti-human IgG Fc capture (AHC) biosensors at low density (0.6 to 0.8 nm), soluble monomeric IL-4Rα as analyte; 25 °C, PBS pH 7.4, 0.02% Tween 20; association 300 s, dissociation 600-900 s; 1:1 binding model. To be noted: both partners purified. On the technique in general: Biolayer interferometry detects binding as a change in optical thickness at a sensor tip.
One may read the Kd as the concentration at which binding is half-saturated. In general, koff refers to a measure of how fast the partners let go of each other. The low end stands for a long-lived complex, the high end for a short-lived complex. What is called kon is a measure of how fast the partners come together. A low value points to slow association. As for B1, the Kd came out at 1.04 nM, the koff was 0.00361 s⁻¹ and the kon came to 3.47e+06 M⁻¹ s⁻¹.
B2 returned a dissociation constant (Kd) of 0.29 nM, a koff of 0.00175 s⁻¹ and a kon of 6.05e+06 M⁻¹ s⁻¹.
The molecule B3 displayed a Kd of 0.532 nM, a koff of 0.00243 s⁻¹ and a kon of 4.58e+06 M⁻¹ s⁻¹.
The corresponding values for B4 are 0.21 nM, 0.000968 s⁻¹ and 4.62e+06 M⁻¹ s⁻¹.
The matching figures for B5: 0.853 nM, 0.00401 s⁻¹ and 4.7e+06 M⁻¹ s⁻¹.
In turn, B6 returned a Kd of 0.178 nM, a koff of 0.000877 s⁻¹ and a kon of 4.93e+06 M⁻¹ s⁻¹.
In the case of B7, the Kd is 0.401 nM, the koff amounted to 0.00172 s⁻¹ and the kon was 4.28e+06 M⁻¹ s⁻¹.
With B8, the Kd came to 0.716 nM, the koff is 0.00371 s⁻¹ and the on-rate constant (kon) amounted to 5.18e+06 M⁻¹ s⁻¹.
B9 came in with a Kd of 0.208 nM, a koff of 0.00107 s⁻¹ and a kon of 5.12e+06 M⁻¹ s⁻¹.
B10 showed a Kd of 0.228 nM, a koff of 0.00106 s⁻¹ and an association rate constant (kon) of 4.63e+06 M⁻¹ s⁻¹.
The matching figures for B11: 0.179 nM, 0.000879 s⁻¹ and 4.92e+06 M⁻¹ s⁻¹.

In a further experiment the target is Dupilumab analogue. The experiment can be described thus: ELISA. To be noted: dupilumab analogue 100 pM; read off a plot. For orientation: In an ELISA, binding on a coated surface is turned into a signal by an enzyme label.
For the molecule “extracellular domain of human IL-4Rα (residues 26–232), C-terminal 6× His (from UniProt P24394) D97A”, the percent of parent is 73%.
For the molecule “extracellular domain of human IL-4Rα (residues 26–232), C-terminal 6× His (from UniProt P24394) Y208A”, the percent of parent amounted to 100%.
For the molecule “extracellular domain of human IL-4Rα (residues 26–232), C-terminal 6× His (from UniProt P24394) S95A”, the percent of parent amounted to 100%.
Still for that read-out and setting: with “extracellular domain of human IL-4Rα (residues 26–232), C-terminal 6× His (from UniProt P24394) Y38A” the figure was 120%; with “extracellular domain of human IL-4Rα (residues 26–232), C-terminal 6× His (from UniProt P24394) V93A”, 76%.
Turning to “extracellular domain of human IL-4Rα (residues 26–232), C-terminal 6× His (from UniProt P24394) D92A”, the percent of parent came out at 100%.
“extracellular domain of human IL-4Rα (residues 26–232), C-terminal 6× His (from UniProt P24394) L67A”: the percent of parent is 100%.
“extracellular domain of human IL-4Rα (residues 26–232), C-terminal 6× His (from UniProt P24394) L68A”: the percent of parent was found to be 97%.

In another experiment the target is T2, insulin (Homo sapiens (assumed), UniProt P01308).
T2 construct: insulin B chain; insulin A chain; Polyreactivity antigen; source: bought: Sigma, I9278
T2 sequence (P01308 whole entry, looked up): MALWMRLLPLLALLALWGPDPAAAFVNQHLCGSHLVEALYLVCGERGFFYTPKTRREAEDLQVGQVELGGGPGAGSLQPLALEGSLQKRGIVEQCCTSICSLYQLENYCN
The experiment can be described thus: ELISA; non-specificity ELISA: hemocyanin (150 ng/well) and insulin (150 ng/well) coated (also dsDNA and cardiolipin). As to conditions: both partners purified.
For B6, the binding result was “no binding”.
